Where a chain is given by its changes, count along the chain named. Numbers in names are those of the source.
Tests used:
[1] = molecular target: the molecule itself; test: native gel or EMSA
[2] = molecular target: the molecule itself; test: semi-denaturing detergent agarose gel electrophoresis
[3] = molecular target: the molecule itself; test: SDS-PAGE of LDS-resistant high molecular weight species
[4] = molecular target: UBE2D3 WT (UniProt P61077 1-147); test: ITC
Chain of UBE2D3 WT (P61077 whole entry): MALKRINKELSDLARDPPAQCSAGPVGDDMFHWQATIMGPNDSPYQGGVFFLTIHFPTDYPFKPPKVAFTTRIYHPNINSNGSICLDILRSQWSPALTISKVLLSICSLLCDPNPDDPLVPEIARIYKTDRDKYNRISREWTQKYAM

B1: WT-ZNFX1 reconstituted in T-REx-293 ZNFX1 KO cells (enzyme)
chain: MEERRPHLDARPRNSHTNHRGPVDGELPPRARNQANNPPANALRGGASHPGRHPRANNHPAAYWQREERFRAMGRNPHQGRRNQEGHASDEARDQRHDQENDTRWRNGNQDCRNRRPPWSNDNFQQWRTPHQKPTEQPQQAKKLGYKFLESLLQKDPSEVVITLATSLGLKELLSHSSMKSNFLELICQVLRKACSSKMDRQSVLHVLGILKNSKFLKVCLPAYVVGMITEPIPDIRNQYPEHISNIISLLQDLVSVFPASSVQETSMLVSLLPTSLNALRASGVDIEEETEKNLEKVQTIIEHLQEKRREGTLRVDTYTLVQPEAEDHVESYRTMPIYPTYNEVHLDERPFLRPNIISGKYDSTAIYLDTHFRLLREDFVRPLREGILELLQSFEDQGLRKRKFDDIRIYFDTRIITPMCSSSGIVYKVQFDTKPLKFVRWQNSKRLLYGSLVCMSKDNFETFLFATVSNREQEDLCRGIVQLCFNEQSQQLLAEVQPSDSFLMVETTAYFEAYRHVLEGLQEVQEEDVPFQRNIVECNSHVKEPRYLLMGGRYDFTPLIENPSATGEFLRNVEGLRHPRINVLDPGQWPSKEALKLDDSQMEALQFALTRELAIIQGPPGTGKTYVGLKIVQALLTNESVWQISLQKFPILVVCYTNHALDQFLEGIYNCQKTSIVRVGGRSNSEILKQFTLRELRNKREFRRNLPMHLRRAYMSIMTQMKESEQELHEGAKTLECTMRGVLREQYLQKYISPQHWESLMNGPVQDSEWICFQHWKHSMMLEWLGLGVGSFTQSVSPAGPENTAQAEGDEEEEGEEESSLIEIAEEADLIQADRVIEEEEVVRPQRRKKEESGADQELAKMLLAMRLDHCGTGTAAGQEQATGEWQTQRNQKKKMKKRVKDELRKLNTMTAAEANEIEDVWQLDLSSRWQLYRLWLQLYQADTRRKILSYERQYRTSAERMAELRLQEDLHILKDAQVVGMTTTGAAKYRQILQKVEPRIVIVEEAAEVLEAHTIATLSKACQHLILIGDHQQLRPSANVYDLAKNFNLEVSLFERLVKVNIPFVRLNYQHRMCPEIARLLTPHIYQDLENHPSVLKYEKIKGVSSNLFFVEHNFPEQEIQEGKSHQNQHEAHFVVELCKYFLCQEYLPSQITILTTYTGQLFCLRKLMPAKTFAGVRVHVVDKYQGEENDIILLSLVRSNQEGKVGFLQISNRICVALSRAKKGMYCIGNMQMLAKVPLWSKIIHTLRENNQIGPMLRLCCQNHPETHTLVSKASDFQKVPEGGCSLPCEFRLGCGHVCTRACHPYDSSHKEFQCMKPCQKVICQEGHRCPLVCFQECQPCQVKVPKTIPRCGHEQMVPCSVPESDFCCQEPCSKSLRCGHRCSHPCGEDCVQLCSEMVTIKLKCGHSQPVKCGHVEGLLYGGLLVKCTTKCGTILDCGHPCPGSCHSCFEGRFHERCQQPCKRLLICSHKCQEPCIGECPPCQRTCQNRCVHSQCKKKCGELCSPCVEPCVWRCQHYQCTKLCSEPCNRPPCYVPCTKLLVCGHPCIGLCGEPCPKKCRICHMDEVTQIFFGFEDEPDARFVQLEDCSHIFEVQALDRYMNEQKDDEVAIRLKVCPICQVPIRKNLRYGTSIKQRLEEIEIIKEKIQGSAGEIATSQERLKALLERKSLLHQLLPEDFLMLKEKLAQKNLSVKDLGLVENYISFYDHLASLWDSLKKMHVLEEKRVRTRLEQVHEWLAKKRLSFTSQELSDLRSEIQRLTYLVNLLTRYKIAEKKVKDSIAVEVYSVQNILEKTCKFTQEDEQLVQEKMEALKATLPCSGLGISEEERVQIVSAIGYPRGHWFKCRNGHIYVIGDCGGAMERGTCPDCKEVIGGTNHTLERSNQLASEMDGAQHAAWSDTANNLMNFEEIQGMM
**Q.** For B1, which “stoichiometry N” value [1] is on record?
**A.** Its value is 2.

B2: full length ZNFX1 expressed in insect cells (ZNFX1FL) (enzyme)
chain: B1 chain
**Q.** Does B2 bind [2]?
**A.** Result: binds

B3: ZNFX1FL F1210A/R1216A (FARA mutant) (enzyme)
chain: B1 chain with F1210A, R1216A
**Q.** Does B3 bind [3]?
**A.** Result: binds

B4: ZNFX1 Z-RING (residues 1533-1631), wild type (domain or fragment)
chain: RPPCYVPCTKLLVCGHPCIGLCGEPCPKKCRICHMDEVTQIFFGFEDEPDARFVQLEDCSHIFEVQALDRYMNEQKDDEVAIRLKVCPICQVPIRKNLR
**Q.** Which results are given for B4?
**A.** Kd [4]: 41 µM; dH [4]: 2.04 kcal/mol
